The values that follow come from the nanobody polyreactivity screen of Harvey et al. (2022).

The nature of this data set: yeast display, Sf9 membrane polyspecificity reagent, FACS + sequencing; frameworks hold sequencing errors. In a few lines:
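A nanobody's polyreactivity label depends on the gate it was sorted from. Yeast display cells were stained with 10% biotinylated, detergent-solubilized Sf9 membrane reagent for 1 hour at 4 °C, enriched on streptavidin microbeads and sorted by FACS. The low and high (top ~1%) gates were set on anti-HA fluorescence for expression and streptavidin fluorescence for reagent binding.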
Turning to “QVQLVESGGGLVQAGGSLRLSCAASGSTFGDNAMGWYRQAPGKERELVAAITSVGTTYYADSVKGRFTISRDNAKNTVYLQMNSLKPEDTAVYYCNAEYVWDDYFEFDYWGQGTQVTVSS”, the “polyreactivity (PSR sort gate)” value is “low polyreactivity”.

As to “QVQLVESGGGLVQAGGSLRLSCAASGRIFGTYAMGWYRQAPGKERELGAAITQSGGRTYYADSVKGRFTISRDNAKKTDYLQMKSLKPEDTAVYYCNKVTYRGIGLGYDYWGQGTQVTVSS”, the “polyreactivity (PSR sort gate)” value is on record as “high polyreactivity”.

On to “QVQLVESGGGLVQAGGSLRLSCAASGRIFNYYAMGWYRQAPGKERELVATISRNGGRTYYADSVKGRFTISRDNAKNTVYLQMNSLKPEDTAVYYCATDGLYRYDYWGQGTQVTVSS”, for which the “polyreactivity (PSR sort gate)” value is listed as “high polyreactivity”. In the case of “QVQLVESGGGLVQAGGSLRLSCAASGFTFGGNPMGWYRQAPGKERELVAAIRRGGSTYYADSVKGRFTISRDNAKNTVYLQMNSLKPEDTAVYYCAAAIPGKYSNDDWGQGTQVTVSS”, the “polyreactivity (PSR sort gate)” value was “high polyreactivity”. The value for “QVQLVESGGGLVQAGGSLRLSCAASGLTFAYYVMGSYRQAPWKERELVAAISRRGGSTYYADSVKGRFTISRDNAKNTVYLQMNSLKPEDTAVYYCNTDWPLPNGGEPGYWGQGTQVTVSS” was “high polyreactivity”; that for “QVQLVESGGGLVQAGGSLRLSCAASGSTFPSNAMGWYRQAPGKERELVAAISRSGGSTNYADSVKGRFTISRDNAKNTVYLQMNSLKPVDTAVYYCKADLGRATFYQRVFIERGGYWGQGTQVTVSS” was “low polyreactivity”. The value for “QVQLVESGGGLVQAGGSLRLSCAASGFTFSRNVLGWYRQAPGKERELIAAITTSYGGTYYADSVKGRFTISRDNAKNTVYLQMNSLKPEDTAVYYCATRYYPNTSYEYYYWGQGTQLTVSS” was “low polyreactivity”; that for “QVQLVESGGGLVQAGGSLRLSCAASGRTFVGNAMGWYRQAPGKERELVAVITGSGARTYYADSVKGRFTISRDNAKNTVYLQMNSLKPEDTAVYYCAAAGYSGQYRSYYWGQGTQVTVSS” was “high polyreactivity”; that for “QVQLVESGGGLVQAGGSLRLSCAASGFTFSDNAMGWYRQAPGKDRELVAAISRSGGNTHYADSVKGRFTISRDNAKNTVYFQMNSLKPEDTAVYYCAARVQGRGYGYYYWGQGTQVSVSS” was “high polyreactivity”. To “QVQLEESGGGLVQAGGSLRLTCDASGLIFSYYAMGWYRQAPGKERELVAAITGSGGTTYYADSVKGRFTISRDNAKNTVLLQMNSLKPEDTAVYYCATPPPEVWQRWYREYDYWGQGTQVTVSS” belongs “low polyreactivity”; to “QVQLVESAGGLVQAGGSLSLSCAASGSTFAGYVMGWYRQAPGKERELVAAISRSGGSTYYADSVKGRFTISRDNAKNTVYLQMNSLKPEDTAVYYCAARNSPGLPGDYWGQGTQVTVSS”, “high polyreactivity”; to “QVQLVESGGGLVQAGGSLRLSCDASGRIFFWYAMGWYRQAPGKERELVAGITSAGSTNYADSVKGRFTISRDNAKNTVYLQMNSLKPEDTSVYFCNTVDSIPIGSGLYYYWGQGTQVTVSS”, “low polyreactivity”. As to “QVHLVESGGGLVQAGGSLRLSCAASGSTFDDNTMGWYRQAPGKERELVAAISSDSSTNYADSVKGRFTISRDNAKNTVYLQMNSLKPEDTAVYSCATRSRTTKIVRWPGMYYWGQGTQVTVSS”, the “polyreactivity (PSR sort gate)” value is on record as “high polyreactivity”. The value for “QVQLVESGGGLVQAGGRLRLSCAASGSTIPRNAMGWYRHAPGKERELVAAITSGGSTNYADSVKGRFTISRDNAKNTVYLQMNSLKPEDTAVYYCAADEQVNTQYVVWGDYWGQGTQVTVSS” was “low polyreactivity”; that for “QVQLVESGLGLVQAGGSLRLSCAASGRTFYYNAMGWYRQAPGKERELVAAISWSGGNTYYADSVKARFTISRDNAKNTVYLQMNSLKPEDTAVYYCAAVYRYYPGYDYWGHGTQVTVSS” was “high polyreactivity”; that for “QVQLVESGGGLVQAGGSLRLSCAASGRIFRYNAMGWYRPAPGKERELVAAIRFSGGSTYYADSVKGRFTISRDHAKNTVYLQMNSLKPEDTAVYDCAKVYFRVQSGMDYWGQGTQVTVSS” was “low polyreactivity”.
